# Results taken from EP0251446B1, “Non-human Carbonyl hydrolase mutants, DNA sequences and vectors encoding same and hosts transformed with said vectors” (GENENCOR INTERNATIONAL, INC., priority 1986, dated 1988).
# How the values were obtained:
# Assay in all cases: Kinetics of p-nitroanilide substrate hydrolysis, M166
# Assay type in all cases: biochemical, B. amyloliquefaciens
# Details in all cases: other: Table XIV, 156 Glu / 166 Met; value in parentheses; synthetic substrate with label as P-1 amino acid
# [1] = substrate: C[C@H](NC(=O)CCC(=O)O)C(=O)N[C@@H](C)C(=O)N1CCC[C@H]1C(=O)N[C@@H](CCC(N)=O)C(=O)Nc1ccc([N+](=O)[O-])cc1
# Text: (§1) Wild-type subtilisin was purified from B. subtilis culture supernatants expressing the B. amyloliquefaciens subtilisin gene (Wells, J.A., et al. (1983) Nucleic Acids Res. 11, 7911-7925) as previously described (Estell, D.A., et al. (1985) J. Biol. Chem. 260, 6518-6521). Details of the synthesis of tetrapeptide substrates having the form succinyl-L-AlaL-AlaL-ProL-[X]-p-nitroanilide (where X is the P1 amino acid) are described by DelMar, E.G., et al. (1979) Anal. Biochem. 99, 316-320. Kinetic parameters, Km(M) and kcat-(s-^1) were measured using a modified progress curve analysis (Estell, D.A., et al. (1985) J. Biol. Chem. 260, 6518-6521). Briefly, plots of rate versus product concentration were fit to the differential form of the rate equation using a non-linear regression algorithm. Errors in kcat and Km for all values reported are less than five percent. The various substrates in Table VIII are ranged in order of decreasing hydrophobicity. Nozaki, Y. (1971), J. Biol. Chem. 246, 2211-2217; Tanford C. (1978) Science 200, 1012).
# (§2) To probe the change in substrate specificity caused by steric alterations in the S-1 subsite, position 166 mutants were kinetically analyzed versus P1 substrates of increasing size (i.e., Ala, Met, Phe and Tyr). Ratios of kcat/Km are presented in log form in Figure 15 to allow direct comparisons of transition-state binding energies between various enzyme-substrate pairs.
# (§3) To isolate the contribution of electrostatics to substrate specificity from other chemical binding forces, these various single and double mutants were analyzed for their ability to bind and cleave synthetic substrates containing Glu, Gln, Met and Lys as the P-1 substrate amino acid. This permitted comparisons between side-chains that were more sterically similar but differed in charge (e.g., Glu versus Gln, Lys versus Met). Similarly, mutant enzymes were assayed against homologous P-1 substrates that were most sterically similar but differed in charge (Table XIV).
# (§4) The kcat/Km ratios shown are the second order rate constants for the conversion of substrate to product, and represent the catalytic efficiency of the enzyme. These ratios are presented in logarithmic form to scale the data, and because log kcat/Km is proportional to the lowering of transition-state activation energy (△GT). Mutations at position 156 and 166 produce changes in catalytic efficiency toward Glu, Gln, Met and Lys P-1 substrates of 3100, 60, 200 and 20 fold, respectively.
# [2] = substrate: C[C@H](NC(=O)CCC(=O)O)C(=O)N[C@@H](C)C(=O)N1CCC[C@H]1C(=O)N[C@@H](CCC(=O)O)C(=O)Nc1ccc([N+](=O)[O-])cc1
# Text: as §1, §2, §3, §4
# [3] = substrate: CSCC[C@H](NC(=O)[C@@H]1CCCN1C(=O)[C@H](C)NC(=O)[C@H](C)NC(=O)CCC(=O)O)C(=O)Nc1ccc([N+](=O)[O-])cc1
# Text: as §1, §2, §3, §4
# [4] = substrate: C[C@H](NC(=O)CCC(=O)O)C(=O)N[C@@H](C)C(=O)N1CCC[C@H]1C(=O)N[C@@H](CCCCN)C(=O)Nc1ccc([N+](=O)[O-])cc1
# Text: as §1, §2, §3, §4
protein,measurement,setting,value
"B. amyloliquefaciens subtilisin variant Glu156/M166 (Gly166 to Met) (Bacillus amyloliquefaciens; G273M) (protein, at various amino acid residues within the mature form of the subtilisin molecule; made in house; host or cells: Bacillus subtilis BG2036) AQSVPYGVSQIKAPALHSQGYTGSNVKVAVIDSGIDSSHPDLKVAGGASMVPSETNPFQDNNSHGTHVAGTVAALNNSIGVLGVAPSASLYAVKVLGADGSGQYSWIINGIEWAIANNMDVINMSLGGPSGSAALKAAVDKAVASGVVVVAAAGNEGTSGSSSTVMYPGKYPSVIAVGAVDSSNQRASFSSVGPELDVMAPGVSIQSTLPGNKYGAYNGTSMASPHVAGAAALILSKHPNWTNTQVRSSLENTTTKLGDSFYYGKGLINVQAAAQ",Km,[1],646 µM
same,Km,[2],5010 µM
same,Km,[3],14.8 µM
same,Km,[4],129 µM
